The values below come from patent publication US20170333524A1.

The target in experiment [1] is MART-1 (ELA peptide) peptide on HLA-A*02:01 (human). Briefly: SPR, Biacore 3000; TCR amine-coupled to a CM5 chip, refolded pMHC injected, 25 °C, 1:1 Langmuir fit; soluble, other. Background: SPR reads the build-up and loss of mass on a sensor chip optically.
For experiment [2] the target is unchanged. Briefly: SPR, Biacore 3000; TCR amine-coupled to a CM5 chip, refolded ELA/HLA-A2 injected, 25 °C (Table 3, ELA); soluble, other.
Experiment [3] has the same target. Nature of the experiment: SPR, Biacore 3000; TCR on the chip, refolded pMHC injected. The row prints the target as 'AAG (SEQ ID NO 5', but its ratio 395.8 is taken against the WT ELA value 9.5, and Table 3 gives 0.024 under ELA); soluble, other.

The Kd is the equilibrium constant for the complex coming apart. DMF5 TCR βL98W had an equilibrium dissociation constant (Kd) in experiment [1] of 2900 nM. On to DMF5 TCR αD26Y/βL98W, for which the equilibrium dissociation constant (Kd) in experiment [2] and in experiment [3] was 24 nM throughout.
